{
  "source": "patent US20200172904A1",
  "about": "(MIT, published 2020)",
  "binders": {"B1": {"name": "Mouse Mena/ENAH (Protein enabled homolog) (other)", "chain": "MSEQSICQARAAVMVYDDANKKWVPAGGSTGFSRVHIYHHTGNNTFRVVGRKIQDHQVVINCAIPKGLKYNQATQTFHQWRDARQVYGLNFGSKEDANVFASAMMHALEVLNSQEAAQSKVTATQDSTNLRCIFCGPTLPRQNSQLPAQVQNGPSQEELEIQRRQLQEQQRQKELERERMERERLERERLERERLERERLEQEQLERQRQEREHVERLERERLERLERERQERERERLEQLEREQVEWERERRMSNAAPSSDSSLSSAPLPEYSSCQPPSAPPPSYAKVISAPVSDATPDYAVVTALPPTSTPPTPPLRHAATRFATSLGSAFHPVLPHYATVPRPLNKNSRPSSPVNTPSSQPPAAKSCAWPTSNFSPLPPSPPIMISSPPGKATGPRPVLPVCVSSPVPQMPPSPTAPNGSLDSVTYPVSPPPTSGPAAPPPPPPPPPPPPPPPLPPPPLPPLASLSHCGSQASPPPGTPLASTPSSKPSVLPSPSAGAPASAETPLNPELGDSSASEPGLQAASQPAESPTPQGLVLGPPAPPPPPPLPSGPAYASALPPPPGPPPPPPLPSTGPPPPPPPPPPLPNQAPPPPPPPPAPPLPASGIFSGSTSEDNRPLTGLAAAIAGAKLRKVSRVEDGSFPGGGNTGSVSLASSKADAGRGNGPLPLGGSGLMEEMSALLARRRRIAEKGSTIETEQKEDRNEDAEPITAKAPSTSTPEPTRKPWERTNTMNGSKSPVISRPKSTPSSQPSANGVQTEGLDYDRLKQDILDEMRKELAKLKEELIDAIRQELSKSNTA", "notes": "Endogenous Mena from E15.5 mouse brain lysates, cultured mouse cortical neurons, N2A cells or MEFs"}},
  "target": "FMR1 (mouse, UniProt P35922 1-614)",
  "test": "co-IP of Mena from E15.5 mouse brain lysates, western blot",
  "protocol": "Collected lysates were cleared by centrifugation for 20 minutes 14k rpm at 4° C., and incubated overnight at 4° C. with antibodies on magnetic protein G beads (incubated in PBS for 4 hours at 4° C. After IP, beads were washed three times with lysis buffer containing 0.4% NP40, and boiled in 2× sodium dodecyl sulfate (SDS) sample buffer for loading onto an acrylamide gel either for western blotting or for Mass Spectrometry.\nMass spectrometry was performed after immunoprecipitation (IP) of Mena from lysates of E15.5 mouse brains from Mena-wild type and Mena-deficient animals. […] To verify the specificity of these interactions, co-IP experiments from E15.5 mouse brains was performed using Mena-deficient brain lysates or isotype-specific antibodies as negative controls.",
  "data": [
    {"binder": "B1", "values": [
      {"measurement": "binding result", "value": "no binding"}
    ]}
  ]
}
